Measured values: article PMC3320615, “β-Microseminoprotein Endows Post Coital Seminal Plasma with Potent Candidacidal Activity by a Calcium- and pH-Dependent Mechanism” (PLoS Pathogens, 2012)

B1: β-microseminoprotein (natural protein, human, UniProt P08118 21-114, looked up)
chain: SCYFIPNEGVPGDSTRKCMDLKGNKHPINSEWQTDNCETCTCYETEISCCTLVSTPVGYDKDNCQRIFKKEDCKYIVVEKKDPKKTCSVSEWII
notes: human β-microseminoprotein (MSP, PSP94), native protein purified from seminal plasma; also called MSP; PSP94

Key:
[1] = Liposome leakage (carboxyfluorescein release); format: biochemical; conditions: pH 6.0, % ± SD of leakage with Triton X-100, CF fluorescence 520 nm, 37°C, at least triplicate, DOPC/cholesterol liposomes
Procedure: Dry lipid films were prepared by dissolving dioleoylphosphatidylcholine (1,2-dioleoyl-sn-Glycero-3-phoshocholine, >99% purity, Avanti Polar Lipids, Alabaster, AL) (60 mol%) (DOPC) and either ergosterol or cholesterol (both >99% purity, Sigma) (40 mol%) in chlorofom, and then removing the solvent by evaporation under vacuum overnight. Subsequently, buffer (10 mM Tris, pH 7.4) was added together with 0.1 M carboxyfluorescein (CF) (Sigma, St Louis, MO). After hydration, the lipid mixture was subjected to eight freeze-thaw cycles consisting of freezing in liquid nitrogen and heating to 60°C. Unilamellar liposomes of about Ø140 nm were generated by multiple extrusions through polycarbonate filters (pore size 100 nm) mounted in a LipoFastminiextruder (Avestin, Ottawa, Canada) at 22°C. Untrapped CF was then removed by two gel filtrations (Sephadex G-50) at 22°C, with Tris buffer as eluent. CF release was determined by monitoring the emitted fluorescence at 520 nm from liposome dispersions (10 mM lipid in 10 mM Tris). An absolute leakage scale was obtained by disrupting the liposomes at the end of the experiment through addition of 0.8 mM Triton X100 (Sigma, St Louis, MO), causing 100% release and dequenching of CF. Although calcein is frequently used for pH-dependent leakage studies, the high charge of this dye has been noted to influence its leakage behavior in the presence of highly cationic peptides. Instead, therefore, CF was used as a leakage marker at both pH 6.0 and 7.4, avoiding pH-dependent fluorescence effects through neutralization prior to probing the limiting leakage in case of pH 6.0 leakage. Throughout, a SPEX-fluorolog 1650 0.22-m double spectrometer (SPEX Industries, Edison, NJ) was used for the liposome leakage assay. Measurements were performed in at least triplicate at 37°C.

[2] = Size exclusion chromatography (dimerization); format: physicochemical; conditions: pH 7.5; 50 mM Tris, 150 mM NaCl; 1 mM calcium or 1 mM EDTA; HiPrep 16/60 Sephacryl S 100
Excerpt: Supplementary file ppat.1002625.s004.tif: Figure S3 Seize exclusion chromatography of MSP. […] (TIF) Click here for additional data file.

[3] = test system: S. pyogenes (M5 Manfredo); test: Antibacterial CFU assay; format: cell-based; conditions: purified MSP 10 µM + 20 µM EDTA or recombinant dialyzed MSP 10 µM + 10 µM EDTA; neutral pH; data not shown
Procedure: (§1) E. coli (strain 37.4), S. aureus (strain 5120), S. pyogenes (M5 Manfredo), S. agalactiae (SB1), and E. faecalis (strain 2374) were grown in THY medium (Todd Hewitt with addition of yeast) and on THY agar plates at 37°C with 5% (v/v) CO2. Candida albicans was grown over night, washed, and resuspended in 10 mM Tris, 5 mM glucose, pH 7.4 or pH 4. Approximately 4×10^3 to 10^4 CFU of C. albicans were incubated with the test substance in low or neutral pH buffer for 4 h at 37°C. After incubation, the suspension was diluted and plated. Colonies were counted after two days incubation of the plates at 30°C. Bacteria from overnight cultures were inoculated in fresh medium and grown for 3 h, washed in 10 mM Tris, 5 mM glucose pH 7.4. Approximately 8×10^4 CFU were incubated with sample in 10 mM Tris, 5 mM glucose pH 7.4 or pH 4 for 1 h at 37°C, diluted, plated and incubated over night at 37°C and the colonies counted.

[4] = test system: E. faecalis (strain 2374); test: Antibacterial CFU assay; format: cell-based; conditions: purified MSP 10 µM + 20 µM EDTA or recombinant dialyzed MSP 10 µM + 10 µM EDTA; low and neutral pH; data not shown
Procedure: as §1

E. coli (strain 37.4) = test: Antibacterial CFU assay; format: cell-based; conditions: purified MSP 10 µM + 20 µM EDTA or recombinant dialyzed MSP 10 µM + 10 µM EDTA; low and neutral pH; data not shown
Procedure: as §1

S. aureus (strain 5120) = test: Antibacterial CFU assay; format: cell-based; conditions: purified MSP 10 µM + 20 µM EDTA or recombinant dialyzed MSP 10 µM + 10 µM EDTA; neutral pH; data not shown
Procedure: as §1

S. agalactiae (SB1) = test: Antibacterial CFU assay; format: cell-based; conditions: purified MSP 10 µM + 20 µM EDTA or recombinant dialyzed MSP 10 µM + 10 µM EDTA; neutral pH; data not shown
Procedure: as §1

C. albicans [5] = test: Antifungal gel overlay assay (AU-PAGE); format: cell-based, Candida albicans
Procedure: Gel overlay assay was performed essentially as described. Briefly, duplicate samples were run on native Acid Urea (AU-PAGE) gels in 5% (v/v) acetic acid at 100 V for 1 h 20 min. Candida albicans was grown over night, washed and resuspended in 10 mM NaPO4 pH 7.4 and approximately 1×10^5 CFU were added to 12 ml melted underlay agarose (10 mM NaPO4, pH 7.4, 0.03% SAB, 1% agarose type 1 (Sigma, St. Louis, MO)) and poured into a square Petri dish. One AU-gel was stained with Coomassie brilliant blue and one AU gel was washed 3×4 min in 10 mM NaPO4, pH 7.4 and then placed on top of the agarose and incubated for 4 h at 37°C. The AU gel was then removed and an overlay agarose (6% SAB, 1% agarosetype 1 (Sigma)) was poured on top of the underlay and incubated over night at 30°C. To make the clearing zones more visible, the agarose was stained with Coomassie brilliant blue followed by destaining.

[6] = biological target: the molecule itself; test: SEC; HiPrep 16/60 Sephacryl S 100 column; 50 mM Tris, 150 mM NaCl, pH 7.5, with 1 mM calcium or 1 mM EDTA; native MSP
C. albicans [7] = test: Scanning electron microscopy of C. albicans; format: cell-based, Candida albicans; conditions: 5 h; 20 µM MSP with 40 µM EDTA, or EDTA alone
Procedure: Specimens were washed with cacodylate buffer, and dehydrated with an ascending ethanol series from 50% (v/v) to absolute ethanol. The specimens were then subjected to critical-point drying in carbon dioxide, with absolute ethanol as intermediate solvent, mounted on aluminum holders, sputtered with 30 nm palladium/gold and examined in a JEOL JSM-350 scanning electron microscope. A small volume from each of the samples was also plated to check antifungal activity.

Molecule	Liposome leakage ([1]; +EDTA) [%]	Liposome leakage ([1]; without EDTA) [%]	Oligomeric state on size exclusion chromatography [2]	Antibacterial activity in CFU assay [3]	Antibacterial activity in CFU assay [4]	Antibacterial activity in CFU assay (E. coli (strain 37.4))	Antibacterial activity in CFU assay (S. aureus (strain 5120))	Antibacterial activity in CFU assay (S. agalactiae (SB1))	Clearing zone in antifungal gel overlay assay (C. albicans [5])	stoichiometry N [6]	Effect on C. albicans by scanning electron microscopy (C. albicans [7])
RIFKKEDCKYI [MSP66–76, eleven residues at the very tip of the loop (residue 66–76)]	0	0	–	–	–	–	–	–	–	–	–
B1	4±2	0	eluted as a dimer	no antibacterial activity	no antibacterial activity	no antibacterial activity	no antibacterial activity	no antibacterial activity	displayed antifungal activity by producing a clearing zone	2	aggregated with disrupted membranes causing cell content leakage
